Drawing on patent publication US20090117153A1, this text covers IC50 and VSV8 concentration that activates the N15 hybridoma; LM1.8 cells (FIG. 11C) for 2 substances.

Assay [1] addresses OVA.β2m.Kb SCT Y84A (mouse) (UniProt P01887).
Assay [2] has as its target OVAp5Y.β2m.Kb Y84A SCT (mouse) (UniProt P01887).
Assay [3] concerns the target OVA.β2m.Kb SCT Y84A (mouse) (UniProt P01887). The source holds these as a separate data set.
In assay [4] the target is native K^b on cells, loaded with endogenous peptides (mouse) (UniProt P01887). As to the kind of experiment: cell-based or functional assay.

Where two headings read alike, the source gives them in different places.

For the substance SIYR peptide, the IC50 in assay [1] was determined as 1.25 µM; in assay [2], 40 µM; in assay [3] it was 125 µM.
For VSV8 peptide, the VSV8 concentration that activates the N15 hybridoma; LM1.8 cells (FIG. 11C) in assay [4] amounted to 1 nM.

Usually IC50 stands for the concentration at which inhibition is half-maximal. Low readings indicate inhibition by little substance, high ones a need for much substance.
